Data from US20230322953A1 (HARBOUR BIOMED SHANGHAI, published 2023).
Residue numbers refer to the chain shown, from its start. In names and notes the source's numbering stands.

B1: PR000402 (bispecific antibody, human IgG1, kappa, L234A L235A)
light: DIQMTQSPSTLSASVGDRVTVTCRASQSIYIWLAWYQQKPGKAPNLLIYKASSLETGVPSRFSGSGSGTEFTLTISSLQPDDFATYYCQQYYGSSRTFGQGTKVEIKRTVAAPSVFIFPPSDEQLKSGTASVVCLLNNFYPREAKVQWKVDNALQSGNSQESVTEQDSKDSTYSLSSTLTLSKADYEKHKVYACEVTHQGLSSPVTKSFNRGEC
chain: EVQLVESGGGLVQPGGSLRLSCAASGFTFSSYWMSWVRQAPGKGLEWVANIKQEGSEKYYVDSVKGRFTISRDNAKNSLYLQMNSLRAEDTAVYYCARDRAVAGAFDIWGQGTMVTVSSASTKGPSVFPLAPSSKSTSGGTAALGCLVKDYFPEPVTVSWNSGALTSGVHTFPAVLQSSGLYSLSSVVTVPSSSLGTQTYICNVNHKPSNTKVDKKVEPKSCDKTHTCPPCPAPEAAGGPSVFLFPPKPKDTLMISRTPEVTCVVVDVSHEDPEVKFNWYVDGVEVHNAKTKPREEQYNSTYRVVSVLTVLHQDWLNGKEYKCKVSNKALGAPIEKTISKAKGQPREPQVYTLPPSREEMTKNQVSLTCLVKGFYPSDIAVEWESNGQPENNYKTTPPVLDSDGSFFLYSKLTVDKSRWQQGNVFSCSVMHEALHNHYTQKSLSLSPGKLGGGGSGGGGSGGGGSRTEVQLVESGGGLIQPGGSLRLSCAVSGFTVSKNYMSWVRQAPGKGLEWVSVVYSGGSKTYADSVKGRFTISRDNSKNTLYLQMNSLRAEDTAVYYCARAVPHSPSSFDIWGQGTMVTVSS
notes: PD-L1×CTLA4, structure 5
B2: PR001574 (bispecific antibody, human IgG1, kappa)
chain: EVQLVESGGGLIQPGGSLRLSCAVSGFTVSKNYMSWVRQAPGKGLEWVSVVYSGGSKTYADSVKGRFTISRDNSKNTLYLQMNSLRAEDTAVYYCARAVPHSPSSFDIWGQGTMVTVSSKLEPKSSDKTHTPPPPPRTDIQMTQSPSTLSASVGDRVTVTCRASQSIYIWLAWYQQKPGKAPNLLIYKASSLETGVPSRFSGSGSGTEFTLTISSLQPDDFATYYCQQYYGSSRTFGQGTKVEIKRTVAAPSVFIFPPSDEQLKSGTASVVCLLNNFYPREAKVQWKVDNALQSGNSQESVTEQDSKDSTYSLSSTLTLSKADYEKHKVYACEVTHQGLSSPVTKSFNRGEC
heavy: not shown
notes: PD-L1×CTLA4, structure 4
B3: PR001575 (bispecific antibody, human IgG1, kappa)
chain 1: B2 chain
chain 2: not shown
notes: PD-L1×CTLA4, structure 9
B4: PR001572 (bispecific antibody, human IgG1, kappa)
chain 1: B2 chain
chain 2: not shown
notes: PD-L1×CTLA4, structure 9 2×VH-IgG
B5: PR001577 (bispecific antibody, human IgG1, kappa)
chain: B2 chain
heavy: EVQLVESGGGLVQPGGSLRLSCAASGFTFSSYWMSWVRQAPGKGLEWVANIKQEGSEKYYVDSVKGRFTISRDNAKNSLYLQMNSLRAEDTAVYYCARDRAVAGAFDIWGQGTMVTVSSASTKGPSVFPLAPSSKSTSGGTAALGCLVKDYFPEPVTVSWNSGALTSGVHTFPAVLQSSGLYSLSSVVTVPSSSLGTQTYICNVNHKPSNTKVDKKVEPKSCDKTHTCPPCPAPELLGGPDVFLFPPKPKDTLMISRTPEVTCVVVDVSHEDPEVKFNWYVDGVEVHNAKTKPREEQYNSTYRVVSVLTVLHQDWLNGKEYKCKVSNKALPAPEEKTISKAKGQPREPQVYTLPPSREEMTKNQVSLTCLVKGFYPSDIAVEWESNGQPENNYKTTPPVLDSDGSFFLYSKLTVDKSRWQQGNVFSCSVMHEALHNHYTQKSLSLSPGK
notes: PD-L1×CTLA4, structure 4, Fc S239D, I332E
B6: PR001609 (bispecific antibody, human IgG1, kappa)
light: B1 light
heavy: not shown
chain: EVQLVESGGGLIQPGGSLRLSCAVSGFTVSKNYMSWVRQAPGKGLEWVSVVYSGGSKTYADSVKGRFTISRDNSKNTLYLQMNSLRAEDTAVYYCARAVPHSPSSFDIWGQGTMVTVSSEPKSSDKTHTCPPCPAPELLGGPSVFLFPPKPKDTLMISRTPEVTCVVVDVSHEDPEVKFNWYVDGVEVHNAKTKPREEQYNSTYRVVSVLTVLHQDWLNGKEYKCKVSNKALPAPIEKTISKAKGQPREPQVCTLPPSREEMTKNQVSLSCAVKGFYPSDIAVEWESNGQPENNYKTTPPVLDSDGSFFLVSKLTVDKSRWQQGNVFSCSVMHEALHNHYTQKSLSLSPGK
notes: PD-L1×CTLA4, structure 11 Fab-Fc-VH, knob/hole
B7: PR001610 (bispecific antibody, human IgG1, kappa)
light: B1 light
heavy: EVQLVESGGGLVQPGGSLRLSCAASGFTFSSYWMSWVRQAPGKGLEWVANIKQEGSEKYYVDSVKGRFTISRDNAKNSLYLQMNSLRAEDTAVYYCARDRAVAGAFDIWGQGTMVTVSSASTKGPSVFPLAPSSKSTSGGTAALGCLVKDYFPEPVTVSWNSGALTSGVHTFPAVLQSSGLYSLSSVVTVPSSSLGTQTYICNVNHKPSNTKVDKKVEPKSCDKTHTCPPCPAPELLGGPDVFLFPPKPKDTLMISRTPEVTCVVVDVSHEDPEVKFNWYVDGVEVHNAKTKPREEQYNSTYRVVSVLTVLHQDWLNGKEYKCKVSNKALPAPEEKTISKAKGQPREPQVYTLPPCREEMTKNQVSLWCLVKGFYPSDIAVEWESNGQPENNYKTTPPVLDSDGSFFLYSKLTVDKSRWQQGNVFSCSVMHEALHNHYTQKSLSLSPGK
chain: B6 chain with S143D, I236E
notes: PD-L1×CTLA4, structure 11, knob/hole, DE
B8: HER2xCTLA4 bispecific antibody molecule PR000916 (bispecific antibody, human IgG1, kappa)
light: not shown
heavy: not shown
chain: B6 chain
notes: Structure 11 Fab-Fc-VH (bivalent asymmetric); PR000210 Fab (normal), one PR000184 VH
B9: HER2xCTLA4 bispecific antibody molecule PR000917 (bispecific antibody, human IgG1, kappa)
light: not shown
heavy: not shown
chain: B6 chain with S143D, I236E
notes: Structure 11 Fab-Fc-VH; PR000210 Fab (normal), one PR000184 VH; DE: S239D, I332E
B10: PR003550, PD-L1×4-1BB bispecific antibody molecule of IgG-VH tetravalent symmetric structure (bispecific antibody)
light: B1 light
heavy: EVQLVESGGGLVQPGGSLRLSCAASGFTFSSYWMSWVRQAPGKGLEWVANIKQEGSEKYYVDSVKGRFTISRDNAKNSLYLQMNSLRAEDTAVYYCARDRAVAGAFDIWGQGTMVTVSSASTKGPSVFPLAPSSKSTSGGTAALGCLVKDYFPEPVTVSWNSGALTSGVHTFPAVLQSSGLYSLSSVVTVPSSSLGTQTYICNVNHKPSNTKVDKKVEPKSCDKTHTCPPCPAPEAAGGPSVFLFPPKPKDTLMISRTPEVTCVVVDVSHEDPEVKFNWYVDGVEVHNAKTKPREEQYNSTYRVVSVLTVLHQDWLNGKEYKCKVSNKALGAPIEKTISKAKGQPREPQVYTLPPSREEMTKNQVSLTCLVKGFYPSDIAVEWESNGQPENNYKTTPPVLDSDGSFFLYSKLTVDKSRWQQGNVFSCSVMHEALHNHYTQKSLSLSPGEPKSSDKTHTPPPPPRTEVQLVESGGGVVQPGGSLRLSCAASGFTFSNYAMTWVRQAPEKGLEWVSSISGSGVSTYYADSVKGRFTISRDNSKNTLYLQMTRLTAEDTAVYFCAKEGSSETDDHYYNVDVWGQGTTVTVSS
notes: Structure 5; IgG PR000265, VH of PR001760 at C-terminus of heavy chain; linker H1_15-RT; human IgG1 (L234A, L235A, P329G)
B11: PR007164, PD-L1×4-1BB bispecific antibody molecule of Fab-HCAb symmetric structure (bispecific antibody, human IgG1)
chain 1: EVQLVESGGGLVQPGGSLRLSCAASGFTFSSYWMSWVRQAPGKGLEWVANIKQEGSEKYYVDSVKGRFTISRDNAKNSLYLQMNSLRAEDTAVYYCARDRAVAGAFDIWGQGTMVTVSSASTKGPSVFPLAPSSKSTSGGTAALGCLVKDYFPEPVTVSWNSGALTSGVHTFPAVLQSSGLYSLSSVVTVPSSSLGTQTYICNVNHKPSNTKVDKKVEPKSC
chain 2: not shown
notes: Structure 1 Fab(CL)-VH-Fc; Fab of PR000265, VH of PR001760; no first linker, human IgG1 hinge (C220S); human IgG1 (L234A, L235A)
B12: PR007163, PD-L1×4-1BB bispecific antibody molecule of Fab-HCAb symmetric structure (bispecific antibody, human IgG1)
light: B1 light
chain: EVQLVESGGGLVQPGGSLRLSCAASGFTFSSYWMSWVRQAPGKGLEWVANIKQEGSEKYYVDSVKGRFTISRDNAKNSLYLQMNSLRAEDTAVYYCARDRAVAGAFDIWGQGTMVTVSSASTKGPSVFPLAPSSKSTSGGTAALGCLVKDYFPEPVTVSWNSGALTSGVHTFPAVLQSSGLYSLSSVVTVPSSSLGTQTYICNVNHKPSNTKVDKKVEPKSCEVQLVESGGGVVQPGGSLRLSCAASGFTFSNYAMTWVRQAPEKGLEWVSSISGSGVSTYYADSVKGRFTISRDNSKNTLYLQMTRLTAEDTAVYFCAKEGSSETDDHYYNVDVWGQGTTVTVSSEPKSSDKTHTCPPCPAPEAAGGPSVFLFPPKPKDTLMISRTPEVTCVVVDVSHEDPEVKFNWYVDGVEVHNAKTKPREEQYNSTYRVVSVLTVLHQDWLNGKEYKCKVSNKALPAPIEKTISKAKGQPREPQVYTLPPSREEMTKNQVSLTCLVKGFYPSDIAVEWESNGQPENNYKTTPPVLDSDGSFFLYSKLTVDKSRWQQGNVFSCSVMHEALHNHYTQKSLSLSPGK
notes: Structure 2 Fab(CH1)-VH-Fc; Fab of PR000265, VH of PR001760; no first linker, human IgG1 hinge (C220S); human IgG1 (L234A, L235A)

molecular target: T1, human PD-L1 on cells (CHO-K1/hPDL1; MDA-MB-231) (human, UniProt Q9NZQ7 19-290); assay: FACS, MDA-MB-231 cells
T1 construct: whole, on cells
T1 sequence (Q9NZQ7 19-290): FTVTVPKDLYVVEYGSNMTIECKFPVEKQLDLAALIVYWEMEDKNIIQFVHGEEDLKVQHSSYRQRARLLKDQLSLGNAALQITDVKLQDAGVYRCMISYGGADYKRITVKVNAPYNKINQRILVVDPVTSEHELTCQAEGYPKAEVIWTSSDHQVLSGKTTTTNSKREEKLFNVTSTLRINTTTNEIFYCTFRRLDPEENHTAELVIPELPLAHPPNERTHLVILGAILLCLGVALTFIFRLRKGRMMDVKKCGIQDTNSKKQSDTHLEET

Row | Binder | EC50 [nM] | Maximum MFI [MFI]
1 | B1 | 0.259 | 841

molecular target: T2, human CTLA4 on cells (CHO-K1/hCTLA4; HEK293/hCTLA4; 293F-hCTLA4) (human, UniProt P16410 36-223); assay: FACS, HEK293/hCTLA4 cells
T2 construct: whole, on cells
T2 sequence (P16410 36-223): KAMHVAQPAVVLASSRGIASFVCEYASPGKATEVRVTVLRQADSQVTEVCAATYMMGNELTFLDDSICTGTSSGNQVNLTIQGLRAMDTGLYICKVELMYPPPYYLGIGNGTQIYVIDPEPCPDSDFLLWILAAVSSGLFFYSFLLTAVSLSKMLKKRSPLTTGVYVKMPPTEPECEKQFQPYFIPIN

Row | Binder | EC50 [nM] | Maximum MFI [MFI]
2 | B1 | 2.4 | 1760

molecular target: T2, human CTLA4 on cells (CHO-K1/hCTLA4; …); assay: FACS, CHO-K1/hCTLA4 cells (Test 2)

Row | Binder | EC50 [nM] | Maximum MFI [MFI]
3 | B2 | 12 | 677
4 | B3 | 5.08 | 415
5 | B4 | 2.91 | 434
6 | B5 | 8.52 | 585
7 | B6 |  | 355
8 | B7 |  | 468

molecular target: T1, human PD-L1 on cells (CHO-K1/hPDL1; …); assay: FACS, CHO-K1/hPDL1 cells (Experiment 2)

Row | Binder | EC50 [nM] | Maximum MFI [MFI]
9 | B2 | 0.93 | 6710
10 | B3 | 2.41 | 5880
11 | B4 | 1.07 | 5830
12 | B5 | 0.96 | 6610
13 | B6 | 1.51 | 11200
14 | B7 | 1.37 | 11100

molecular target: T3, human CTLA4 on CHO-K1/hCTLA4 cells (human, UniProt P16410 36-223); assay: flow cytometry on CHO-K1/hCTLA4 cells, Experiment 1
T3 construct: whole, on cells; CHO-K1 cell line highly expressing human CTLA4; also called human CTLA4 cell
T3 sequence (P16410 36-223): as above

Row | Binder | EC50 [nM] | Maximum MFI [MFI]
15 | B8 | 4.68 | 151
16 | B9 | 9.8 | 142

molecular target: T1, human PD-L1 on cells (CHO-K1/hPDL1; …); assay: competition FACS: biotinylated PD-1 to CHO-K1/hPDL1 cells

Row | Binder | fold poorer IC50 than the parent monoclonal antibody [fold]
17 | B2 | 2 to 3
18 | B3 | 4 to 6
19 | B4 | 4 to 6
20 | B5 | 2 to 3
21 | B6 | 4 to 5
22 | B7 | 4 to 5

molecular target: T4, human PD-L1 (programmed death ligand 1) (human, UniProt Q9NZQ7 19-290); assay: flow cytometry (FACS) on CHO-K1/hPDL1 cells, Experiment 1
T4 construct: whole, on cells; also called hPDL1; CD274
T4 sequence (Q9NZQ7 19-290): as the sequence (Q9NZQ7 19-290) above

Row | Binder | EC50 [nM] | Maximum MFI [MFI]
23 | B10 | 1.11 | 2250

molecular target: T4, human PD-L1 (programmed death ligand 1); assay: flow cytometry (FACS) on CHO-K1/hPDL1 cells, Experiment 3

Row | Binder | EC50 [nM] | Maximum MFI [MFI]
24 | B11 | 1.93 | 51400
25 | B12 | 2.26 | 51300

molecular target: T5, cynomolgus monkey 4-1BB (cynomolgus monkey); assay: flow cytometry (FACS) on CHO-K1/cyno 4-1BB cells, Experiment 1
T5 construct: whole, on cells; also called cyno 4-1BB

Row | Binder | EC50 [nM] | Maximum MFI [MFI]
26 | B10 | 1.32 | 5360

molecular target: T2, human CTLA4 on cells (CHO-K1/hCTLA4; …); assay: competition FACS: biotinylated B7-1-Fc to CHO-K1/hCTLA4 cells (Test 2)

Row | Binder | IC50 [nM] | Maximum inhibition rate (%)
27 | B2 | 4.49 | 99.8
28 | B3 | 3.79 | 100
29 | B4 | 2.98 | 100
30 | B5 | 4.88 | 99.7
31 | B6 | 98.3 | 95
32 | B7 | 96.6 | 61.3

molecular target: T1, human PD-L1 on cells (CHO-K1/hPDL1; …); assay: competition FACS: biotinylated PD-1 to CHO-K1/hPDL1 cells (Experiment 2)

Row | Binder | IC50 [nM] | Maximum inhibition rate (%)
33 | B2 | 0.88 | 81.1
34 | B3 | 1.74 | 81.7
35 | B4 | 1.4 | 80.7
36 | B5 | 0.61 | 81
37 | B6 | 1.12 | 81.6
38 | B7 | 1.23 | 80.2
